According to patent US20220162320A1 (published 2022):
One block for each binder: values may come before it.

How the values were obtained:
[1] = biological target: T1, HLA-PEPTIDE target G2: HLA-A*01:01_…, recombinant soluble complex (human, enzymatically biotinylated (BirA)); experiment: BLI
[2] = biological target: T2, CD3 (reagent of the affinity experiments of Example 18) (UniProt P07766 23-126); experiment: BLI
T2 chain: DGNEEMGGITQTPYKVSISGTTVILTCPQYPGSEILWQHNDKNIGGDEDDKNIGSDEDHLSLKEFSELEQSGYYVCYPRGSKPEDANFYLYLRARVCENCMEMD

[3] = biological target: T1, HLA-PEPTIDE target G2: HLA-A*01:01_…, …; experiment: BLI; remark: listed apart in the source
[4] = biological target: T2, CD3 (reagent of the affinity …); experiment: BLI
[5] = biological target: T1, HLA-PEPTIDE target G2: HLA-A*01:01_…, …; experiment: BLI; remark: listed apart in the source
[6] = biological target: T2, CD3 (reagent of the affinity …); experiment: BLI; avid; apparent KD (bivalent)
[7] = biological target: T1, HLA-PEPTIDE target G2: HLA-A*01:01_…, …; experiment: BLI; avid; apparent KD (bivalent)
[8] = biological target: T2, CD3 (reagent of the affinity …); experiment: BLI
[9] = biological target: T1, HLA-PEPTIDE target G2: HLA-A*01:01_…, …; experiment: BLI; remark: listed apart in the source
[10] = biological target: T1, HLA-PEPTIDE target G2: HLA-A*01:01_…, …; experiment: BLI; apparent KD (bivalent), avid
[11] = biological target: T2, CD3 (reagent of the affinity …); experiment: BLI
[12] = biological target: T1, HLA-PEPTIDE target G2: HLA-A*01:01_…, …; experiment: BLI; remark: listed apart in the source
[13] = biological target: T2, CD3 (reagent of the affinity …); experiment: BLI
[14] = biological target: T1, HLA-PEPTIDE target G2: HLA-A*01:01_…, …; experiment: BLI; remark: listed apart in the source
[15] = biological target: T2, CD3 (reagent of the affinity …); experiment: BLI; apparent KD (bivalent), avid
[16] = biological target: T1, HLA-PEPTIDE target G2: HLA-A*01:01_…, …; experiment: BLI; apparent KD (bivalent), avid; remark: listed apart in the source
[17] = biological target: T2, CD3 (reagent of the affinity …); experiment: BLI
[18] = biological target: T2, CD3 (reagent of the affinity …); experiment: BLI; IgG analyte, apparent KD (bivalent), avid

B2: 3-OKT3-G2(1H11) (antibody)
chain 1: not shown
chain 2: not shown
chain 3: MDMRVPAQLLGLLLLWLPGARCQIVLTQSPAIMSASPGEKVTMTCSASSSVSYMNWYQQKSGTSPKRWIYDTSKLASGVPAHFRGSGSGTSYSLTISGMEAEDAATYYCQQWSSNPFTFGSGTKLEINRTVAAPSVFIFPPSDEQLKSGTASVVCLLNNFYPREAKVQWKVDNALQSGNSQESVTEQDSKDSTYSLSSTLTLSKADYEKHKVYACEVTHQGLSSPVTKSFNRGEC
Kd [1]: 23.8 nM

B3: 3-G2(1H11)-hOKT3 (bispecific antibody)
chain: not shown
heavy: QVQLVQSGAEVKKPGASVKVSCKASGYTFTRYTMHWVRQAPGQGLEWMGYINPSRGYTNYNQKFKDRVTLTTDKSSSTAYMELSSLRSEDTAVYYCARYYDDHYSLDYWGQGTLVTVSSASTKGPSVFPLAPSSKSTSGGTAALGCLVKDYFPEPVTVSWNSGALTSGVHTFPAVLQSSGLYSLSSVVTVPSSSLGTQTYICNVNHKPSNTKVDKRVEPKSCDKTHTCPPCPAPELLGGPSVFLFPPKPKDTLMISRTPEVTCVVVDVSHEDPEVKFNWYVDGVEVHNAKTKPREEQYQSTYRVVSVLTVLHQDWLNGKEYKCKVSNKALPAPIEKTISKAKGQPREPQVCTLPPSREEMTKNQVSLSCAVKGFYPSDIAVEWESNGQPENNYKTTPPVLDSDGSFFLVSKLTVDKSRWQQGNVFSCSVMHEALHNRFTQKSLSLSPGK
light: DIQMTQSPSSLSASVGDRVTITCSASSSVSYMNWYQQKPGKAPKRLIYDTSKLASGVPSRFSGSGSGTDFTLTISSLQPEDFATYYCQQWSSNPFTFGQGTKLEIKRTVAAPSVFIFPPSDEQLKSGTASVVCLLNNFYPREAKVQWKVDNALQSGNSQESVTEQDSKDSTYSLSSTLTLSKADYEKHKVYACEVTHQGLSSPVTKSFNRGEC
Kd [2]: 168 nM
Kd [3]: 421 nM

B7: 2-G2(1H11)-αCD3 (bispecific antibody)
heavy: not shown
light: QAVVTQEPSLTVSPGGTVTLTCGSSTGAVTTSNYANWVQQKPGKSPRGLIGGTNKRAPGVPARFSGSLLGGKAALTISGAQPEDEADYYCALWYSNHWVFGGGTKLTVLRTVAAPSVFIFPPSDEQLKSGTASVVCLLNNFYPREAKVQWKVDNALQSGNSQESVTEQDSKDSTYSLSSTLTLSKADYEKHKVYACEVTHQGLSSPVTKSFNRGEC
Kd [13]: 6.02 nM
Kd [14]: 82.2 nM
Kd [15]: 0.696 nM
Kd [16]: 3.41 nM

B8: hOKT3 IgG (antibody, V domains shown)
VH: QVQLVQSGAEVKKPGASVKVSCKASGYTFTRYTMHWVRQAPGQGLEWMGYINPSRGYTNYNQKFKDRVTLTTDKSSSTAYMELSSLRSEDTAVYYCARYYDDHYSLDYWGQGTLVTVSS
VL: DIQMTQSPSSLSASVGDRVTITCSASSSVSYMNWYQQKPGKAPKRLIYDTSKLASGVPSRFSGSGSGTDFTLTISSLQPEDFATYYCQQWSSNPFTFGQGTKLEIKR
Kd [17]: 268 nM
Kd [18]: 8.44 nM

Other lines, results leading:

Kd [1]: 24.8 nM
B1: 3-G2(1H11)-OKT3 (bispecific antibody)
chain: not shown
heavy: not shown
light: QIVLTQSPAIMSASPGEKVTMTCSASSSVSYMNWYQQKSGTSPKRWIYDTSKLASGVPAHFRGSGSGTSYSLTISGMEAEDAATYYCQQWSSNPFTFGSGTKLEINRTVAAPSVFIFPPSDEQLKSGTASVVCLLNNFYPREAKVQWKVDNALQSGNSQESVTEQDSKDSTYSLSSTLTLSKADYEKHKVYACEVTHQGLSSPVTKSFNRGEC

Kd [4]: 5.95 nM
Kd [5]: 215 nM
Kd [6]: 0.828 nM
Kd [7]: 4.53 nM
B4: 6-G2(1H11)-αCD3 (bispecific antibody)
heavy: not shown
light: QAVVTQEPSLTVSPGGTVTLTCGSSTGAVTTSNYANWVQQKPGKSPRGLIGGTNKRAPGVPARFSGSLLGGKAALTISGAQPEDEADYYCALWYSNHWVFGGGTKLTVLRTVAAPSVFIFPPSDEQLKSGTASVVCLLNNFYPREAKVQWKVDNALQSGNSQESVTEQDSKDSTYSLSSTLTLSKADYEKHKVYACEVTHQGLSSPVTKSFNRGEC

Kd [8]: 11.6 nM
Kd [9]: 543 nM
Kd [10]: 2.95 nM
B5: 4-G2(1H11)-αCD3 (bispecific antibody)
chain: not shown
heavy: QVQLVQSGAEVKKPGASVKVSCKASGYTFTNYYMHWVRQAPGQGLEWMGMINPSGGGTSYAQKFQGRVTMTRDTSTSTVYMELSSLRSEDTAVYYCARGNPWELRLDYWGQGTLVTVSSGGGGSGGGGSGGGGSGGGGSDIQMTQSPSSLSASVGDRVTITCQASQDISNYLNWYQQKPGKAPKLLIYAASSLQSGVPSRFSGSGSGTDFTLTISSLQPEDFATYYCQQYYSYPFTFGPGTKVDIKGGGGSGGGGSEVQLVESGGGLVQPGGSLRLSCAASGFTFSTYAMNWVRQAPGKGLEWVGRIRSKYNNYATYYADSVKGRFTISRDDSKNTLYLQMNSLRAEDTAVYYCVRHGNFGDSYVSWFAYWGQGTLVTVSSASTKGPSVFPLAPSSKSTSGGTAALGCLVKDYFPEPVTVSWNSGALTSGVHTFPAVLQSSGLYSLSSVVTVPSSSLGTQTYICNVNHKPSNTKVDKRVEPKSCDKTHTCPPCPAPELLGGPSVFLFPPKPKDTLMISRTPEVTCVVVDVSHEDPEVKFNWYVDGVEVHNAKTKPREEQYQSTYRVVSVLTVLHQDWLNGKEYKCKVSNKALPAPIEKTISKAKGQPREPQVCTLPPSREEMTKNQVSLSCAVKGFYPSDIAVEWESNGQPENNYKTTPPVLDSDGSFFLVSKLTVDKSRWQQGNVFSCSVMHEALHNRFTQKSLSLSPGK
light: QAVVTQEPSLTVSPGGTVTLTCGSSTGAVTTSNYANWVQQKPGKSPRGLIGGTNKRAPGVPARFSGSLLGGKAALTISGAQPEDEADYYCALWYSNHWVFGGGTKLTVLRTVAAPSVFIFPPSDEQLKSGTASVVCLLNNFYPREAKVQWKVDNALQSGNSQESVTEQDSKDSTYSLSSTLTLSKADYEKHKVYACEVTHQGLSSPVTKSFNRGEC

Kd [11]: 20 nM
Kd [12]: 28.8 nM
B6: 5-G2(1H11)-αCD3 (bispecific antibody)
chain: not shown
heavy: QVQLVQSGAEVKKPGASVKVSCKASGYTFTNYYMHWVRQAPGQGLEWMGMINPSGGGTSYAQKFQGRVTMTRDTSTSTVYMELSSLRSEDTAVYYCARGNPWELRLDYWGQGTLVTVSSGGGGSGGGGSGGGGSGGGGSDIQMTQSPSSLSASVGDRVTITCQASQDISNYLNWYQQKPGKAPKLLIYAASSLQSGVPSRFSGSGSGTDFTLTISSLQPEDFATYYCQQYYSYPFTFGPGTKVDIKGGGGSGGGGSEVQLVESGGGLVQPGGSLRLSCAASGFTFSTYAMNWVRQAPGKGLEWVGRIRSKYNNYATYYADSVKGRFTISRDDSKNTLYLQMNSLRAEDTAVYYCVRHGNFGDSYVSWFAYWGQGTLVTVSSASTKGPSVFPLAPSSKSTSGGTAALGCLVKDYFPEPVTVSWNSGALTSGVHTFPAVLQSSGLYSLSSVVTVPSSSLGTQTYICNVNHKPSNTKVDKRVEPKSCDKTHTCPPCPAPELLGGPSVFLFPPKPKDTLMISRTPEVTCVVVDVSHEDPEVKFNWYVDGVEVHNAKTKPREEQYQSTYRVVSVLTVLHQDWLNGKEYKCKVSNKALPAPIEKTISKAKGQPREPQVCTLPPSREEMTKNQVSLSCAVKGFYPSDIAVEWESNGQPENNYKTTPPVLDSDGSFFLVSKLTVDKSRWQQGNVFSCSVMHEALHNRFTQKSLSLSPGK
light: QAVVTQEPSLTVSPGGTVTLTCGSSTGAVTTSNYANWVQQKPGKSPRGLIGGTNKRAPGVPARFSGSLLGGKAALTISGAQPEDEADYYCALWYSNHWVFGGGTKLTVLRTVAAPSVFIFPPSDEQLKSGTASVVCLLNNFYPREAKVQWKVDNALQSGNSQESVTEQDSKDSTYSLSSTLTLSKADYEKHKVYACEVTHQGLSSPVTKSFNRGEC
